Measured values from article PMC4539596, “Three-dimensional electron microscopy reconstruction and cysteine-mediated crosslinking provide a model of the type III secretion system needle tip complex” (Molecular Microbiology, 2014).

Legend:
MxiH (Shigella flexneri) = MxiH (Shigella flexneri) (UniProt P0A223); assay: avidin labelling with negative-stain EM; needle complexes with biotinylated Avitag proteins held on Ni-NTA beads by His6-MxiG, avidin in 300 to 500 molar excess overnight at 4°C, washed, eluted, negative stain; avidin counted on the needle tips
IpaD (Shigella flexneri) [1] = molecular target: IpaD (Shigella flexneri) (UniProt P18013); assay: negative-stain EM three-dimensional reconstruction; tip complex and needle of purified needle complexes from the ΔipaB strain; single particle and helical image analysis, 25 Å; complex assembled on the bacteria
IpaB (Shigella flexneri) = assay: avidin labelling with negative-stain EM; needle complexes with biotinylated Avitag proteins held on Ni-NTA beads by His6-MxiG, avidin in 300 to 500 molar excess overnight at 4°C, washed, eluted, negative stain; avidin counted on the needle tips
IpaD (Shigella flexneri) [2] = molecular target: IpaD (Shigella flexneri) (UniProt P18013); assay: negative-stain EM three-dimensional reconstruction; tip complex and needle of purified needle complexes from the wild-type strain; the half of the images with the lower cross-correlation to the ΔipaB map, 24 Å; complex assembled on the bacteria
IpaD (Shigella flexneri) [3] = molecular target: IpaD (Shigella flexneri) (UniProt P18013); assay: negative-stain EM three-dimensional reconstruction; tip complex and needle of needle complexes purified on Ni-NTA by His6-MxiG from mxiH mutant strains (Q51A, P44A, P44A+Q51A), 21-24 Å; Q51A map refined to 19 Å; complex assembled on the bacteria
[4] = molecular target: IpaD_avitag (Shigella flexneri) (UniProt P18013); assay: avidin labelling with negative-stain EM; needle complexes with biotinylated Avitag proteins held on Ni-NTA beads by His6-MxiG, avidin in 300 to 500 molar excess overnight at 4°C, washed, eluted, negative stain; avidin counted on the needle tips
[5] = molecular target: the molecule itself; assay: cross-linking; bacteria of otherwise wild-type background treated with 30 uM BM(PEG)2, quenched; crudely purified needle complexes, Western blot with anti-IpaD and anti-IpaB; no bands with the oxidiser; pattern unchanged on addition of Congo red

Chain of MxiH (Shigella flexneri) (P0A223 whole entry): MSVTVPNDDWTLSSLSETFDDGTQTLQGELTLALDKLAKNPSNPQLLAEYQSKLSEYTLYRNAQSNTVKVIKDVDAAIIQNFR

Molecule: IpaB_avitag (natural protein)
- percent of needle tips labelled with at least one avidin (MxiH (Shigella flexneri)): 2.5%

Molecule: IpaD (from UniProt P18013 1-332) (natural protein)
- stoichiometry N (IpaD (Shigella flexneri) [1]): 5
- stoichiometry N (IpaB (Shigella flexneri)): 4
- stoichiometry N (IpaD (Shigella flexneri) [2]): 4
- stoichiometry N (IpaD (Shigella flexneri) [3]): 4

Molecule: IpaD_avitag (from UniProt P18013 1-332) (natural protein)
- stoichiometry N [4]: 4
- percent of needle tips labelled with at least one avidin (MxiH (Shigella flexneri)): 25%

B1: IpaD C322S/S173C/K258C (natural protein)
chain: MNITTLTNSISTSSFSPNNTNGSSTETVNSDIKTTTSSHPVSSLTMLNDTLHNIRTTNQALKKELSQKTLTKTSLEEIALHSSQISMDVNKSAQLLDILSRNEYPINKDARELLHSAPKEAELDGDQMISHRELWAKIANSINDINEQYLKVYEHAVSSYTQMYQDFSAVLSCLAGWISPGGNDGNSVKLQVNSLKKALEELKEKYKDKPLYPANNTVSQEQANKWLTELGGTIGKVSQKNGGYVVSINMTPIDNMLCSLDNLGGNGEVVLDNAKYQAWNAGFSAEDETMKNNLQTLVQKYSNANSIFDNLVKVLSSTISSSTDTDKLFLHF
notes: IpaD, Shigella flexneri, with the intrinsic cysteine 322 changed to serine and two cysteines put in (helix α3 and helix α6); also called ipaDS173C/K258C; source: S. flexneri ΔipaD, ΔipaB ΔipaD or ΔmxiH ΔipaD background, from pUC18 ipaD_(C322S); on needle tips, in sheared needles or crudely purified needle complexes
- stoichiometry N [5]: 5
